Literature values, collected in patent publication US10888616B2 (Latitude Pharmaceuticals, Inc., priority 2015, dated 2021).

How the values were obtained:
[1] = acidic solution (pH 2-4), within 24 hours at 37° C.

For “Glucagon: single-chain polypeptide of 29 amino acid residues, sequence in FIG. 1 (SEQ ID NO: 1)”, the “solubility in pure water or alcohol” value is listed as “insoluble”, the gelling in water (pH 3 or lower) is listed as “will aggregate to form a gel within hours” and the solubility in water (physiological pH (pH 4-8)) is listed as “insoluble”. The “glucagon broken down into degradation products” value [1] was 5-70%.
